Results reported in US20220001039A1, “COMPOSITIONS AND METHODS FOR DETECTING ACE2 EXPRESSION PROFILES” (Washington University, priority 2020, published 2022).
Where two headings read alike, the source gives them in different places.

Columns and labels:
[1] = molecular target: T1, ACE2 (Homo sapiens, UniProt Q9BYF1); assay: 68Ga-HZ20 PET/CT in healthy volunteers (SUVmax)
[2] = Acute toxicity test / body weight monitoring in mice; type: in vivo
Experimental: The experiment was carried out in 10 mice at 4-weeks of age. […] The injection was repeated on day 0, day 4, day 11, day 18 and day 25, and the weight of the mice was recorded.

[3] = type: physicochemical
Experimental: The solution was analyzed by radio-HPLC to assess the radiochemical purity. The HPLC was eluted with water-CH3CN system (Phase A: 0.1% TFA H2O; Phase B: 0.1% TFA CH3CN) using gradient elution (0-5 min 20% B; 5-10 min 20%-80% B; 10-12 min 80% B; 12-15 min 80%-20% B) at a flow rate of 1.0 mL/min. The radiolabeling yield was 59.9±3.9% (non-decay corrected, n=10) and the radiochemical purity was over 95%. […] At 1 h, 2 h, and 4 h time points, 10 μL aliquot was analyzed by radio-HPLC to assess the radiochemical purity.

[4] = clinical; conditions: human, in vivo, iv, total radioactivity, SUVmax
[5] = molecular target: T1, ACE2; conditions: in vivo
[6] = molecular target: T1, ACE2; conditions: in vivo; remark: listed apart in the source
[7] = molecular target: T1, ACE2; design: from tissue; host or cells: organs of hACE2 transgenic mice, imaged in vivo by PET; species or system mice; conditions: mouse, in vivo
Source text: PET images were reconstructed by an iterative three-dimensional maximum a priori algorithm.

[8] = in vivo
Source text: Ex vivo biodistribution analysis of the tracer in these hACE2 expressing (and vehicle control) tumors recapitulated these imaging findings (FIG. 5A).

[9] = test system: HEK293-hACE2 xenografts; design: species or system mice; conditions: mouse, in vivo
Experimental: Tumors were monitored and imaging commenced after reaching >200 mm3. […] PET images were reconstructed by an iterative three-dimensional maximum a priori algorithm. […] At 1, 4, and 20 h post-injection, the animals were sacrificed for tissue dissection. The organs of interest were collected, rinsed, blotted, weighed, and counted with a γ-counter (Perkin Elmer Wizard2). The total injected radioactivity per animal was determined from the measured radioactivity in an aliquot of the injectate. Data were expressed as a percent of injected activity per gram of tissue (% IA/g).

[10] = healthy volunteers average, 90 min

T1 sequence (Q9BYF1 18-805): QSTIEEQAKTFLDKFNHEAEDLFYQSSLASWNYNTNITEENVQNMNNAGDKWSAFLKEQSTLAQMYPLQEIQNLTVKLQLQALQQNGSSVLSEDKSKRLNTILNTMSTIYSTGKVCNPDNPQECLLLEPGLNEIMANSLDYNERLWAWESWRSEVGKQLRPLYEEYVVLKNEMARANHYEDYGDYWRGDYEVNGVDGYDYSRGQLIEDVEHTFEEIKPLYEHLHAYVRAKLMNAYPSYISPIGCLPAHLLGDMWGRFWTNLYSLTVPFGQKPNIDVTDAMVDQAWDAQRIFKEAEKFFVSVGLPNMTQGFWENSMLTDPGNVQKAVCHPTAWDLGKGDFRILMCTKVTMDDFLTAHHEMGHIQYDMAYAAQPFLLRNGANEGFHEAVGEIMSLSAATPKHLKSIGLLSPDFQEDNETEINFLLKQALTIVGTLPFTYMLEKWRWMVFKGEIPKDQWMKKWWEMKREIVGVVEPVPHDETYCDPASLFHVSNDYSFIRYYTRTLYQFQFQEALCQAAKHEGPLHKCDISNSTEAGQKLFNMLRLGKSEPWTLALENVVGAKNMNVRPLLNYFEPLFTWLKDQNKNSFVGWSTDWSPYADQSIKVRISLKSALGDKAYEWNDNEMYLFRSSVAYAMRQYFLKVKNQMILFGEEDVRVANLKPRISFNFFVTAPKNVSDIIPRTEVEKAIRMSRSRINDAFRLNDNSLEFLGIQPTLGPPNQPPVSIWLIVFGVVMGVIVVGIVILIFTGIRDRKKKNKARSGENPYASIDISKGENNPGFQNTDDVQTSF

Compound: CC(C)C[C@@H]1NC(=O)[C@@H]2CCCN2C(=O)[C@H](CO)NC(=O)[C@@H](NC(=O)[C@H](Cc2c[nH]cn2)NC(=O)[C@H](CO)NC(=O)[C@H](Cc2ccc(O)cc2)NC(=O)[C@H](CC(=O)O)NC(=O)CNC(=O)CN2CCN(CC(=O)O)CCN(CC(=O)O)CCN(CC(=O)O)CC2)CSSC[C@@H](C(=O)N[C@H](C(=O)N[C@@H](Cc2ccc(O)cc2)C(=O)N2CCC[C@H]2C(=O)N[C@@H](CC(=O)O)C(=O)N2CCC[C@H]2C(=O)N[C@@H](CCC(=O)O)C(=O)NCC(=O)NCC(=O)NCC(N)=O)[C@@H](C)O)NC(=O)[C@H](CCCCN)NC(=O)[C@H](Cc2c[nH]c3ccccc23)NC(=O)[C@H](Cc2c[nH]c3ccccc23)NC(=O)[C@@H]2CCCN2C(=O)[C@H](Cc2ccc(O)cc2)NC(=O)[C@H](Cc2ccc(O)cc2)NC(=O)[C@H](CCCNC(=N)N)NC1=O [68Ga-HZ20, metal not drawn]
- SUVmax, breast, young group ([1]; female volunteers <50 years, 90 min): 2.21±0.25
- SUVmax, breast, old group ([1]; female volunteers ≥50 years, 90 min): 1.35±0.22
- SUVmax, ovary ([1]; healthy females, 90 min): 2.12±1.42
- SUVmax, uterus ([1]; healthy females, 90 min): 2.41±0.34
- SUVmax, testis ([1]; healthy males, 90 min): 4.46±0.30
- SUVmax, left testis ([1]; healthy volunteers): 4.58±0.40
- SUVmax, renal cortex, left kidney ([1]; healthy volunteers): 22.18±1.78
- SUVmax, renal cortex, right kidney ([1]; healthy volunteers): 25.67±1.39
- SUVmax, right testis ([1]; healthy volunteers): 4.51±0.54
- SUVmax, conjunctiva [1, 10]: 1.71±0.08
- SUVmax, esophagus [1, 10]: 1.63±0.11
- SUVmax, liver [1, 10]: 1.59±0.14
- SUVmax, pancreas [1, 10]: 1.63±0.24
- SUVmax, rectum [1, 10]: 1.46±0.13
- SUVmax, renal cortex [1, 10]: 25.67±1.39
- SUVmax, renal medulla [1, 10]: 18.34±1.42
- acute toxicity test ([2]; mouse, in vivo): well tolerated
- stability [3]: stable within 2 h
- SUV at 1.5 h ([4]; both, gallbladder): 2.14 ± 0.16 SUV
- SUV ([4]; both, other organs (relatively low uptake)): < 1.5 SUV
- SUV ([4]; both, renal cortex, corpus luteum, and testis (high uptake)): > 2.5 SUV
- SUV ([4]; female, breast, gallbladder, ovary, nasal mucosa, and esophagus (median uptake)): 1.5 SUV
- SUV ([4]; male, conjunctiva): 1.5 SUV
- SUVmax, gallbladder [5]: 4.32
- SUVmax, left testis [5]: 8.65
- SUVmax, renal cortex [5]: 18.40
- SUVmax, renal cortex, left kidney [5]: 11.59
- SUVmax, renal cortex, right kidney [5]: 18.40
- SUVmax, right testis [5]: 8.79
- SUVmax difference right minus left, confidence interval, eyes [6]: −0.09 to 0.10
- SUVmax difference right minus left, confidence interval, lungs [6]: −0.02 to 0.10
- SUVmax difference right minus left, confidence interval, renal cortex [6]: 3.77 to 10.90
- SUVmax difference right minus left, confidence interval, testis [6]: −0.38 to 0.25
- SUVmax, breast [6]: 2.72
- SUVmax, lung [6]: only low SUVmax
- SUVmax, small intestine [6]: 0.48
- SUVmax, testis [6]: 5.57
- blood-brain barrier penetration [6]: poor blood-brain barrier penetration

Compound: CC(C)C[C@@H]1NC(=O)[C@@H]2CCCN2C(=O)[C@H](CO)NC(=O)[C@@H](NC(=O)[C@H](Cc2c[nH]cn2)NC(=O)[C@H](CO)NC(=O)[C@H](Cc2ccc(O)cc2)NC(=O)[C@H](CC(=O)O)NC(=O)CNC(=O)CCC(C(=O)O)N2CCN(CC(=O)O)CCN(CC(=O)O)CC2)CSSC[C@@H](C(=O)N[C@H](C(=O)N[C@@H](Cc2ccc(O)cc2)C(=O)N2CCC[C@H]2C(=O)N[C@@H](CC(=O)O)C(=O)N2CCC[C@H]2C(=O)N[C@@H](CCC(=O)O)C(=O)NCC(=O)NCC(=O)NCC(N)=O)[C@@H](C)O)NC(=O)[C@H](CCCCN)NC(=O)[C@H](Cc2c[nH]c3ccccc23)NC(=O)[C@H](Cc2c[nH]c3ccccc23)NC(=O)[C@@H]2CCCN2C(=O)[C@H](Cc2ccc(O)cc2)NC(=O)[C@H](Cc2ccc(O)cc2)NC(=O)[C@H](CCCNC(=N)N)NC1=O (stereo partly shown) [64Cu-HZ20, metal not drawn]
- accumulation in hACE2 transgenic mice compared to wild-type strain [7]: significantly higher accumulation in the heart, lung, liver, and intestine
- tissue retention by imaging or organ counting [8]: limited or very low tissue retention
- clearance from the blood pool [9]: rapid
- hACE2 tumor binding [9]: Greater hACE2 tumor binding
- kidney clearance [9]: greater kidney clearance
- signal distribution by PET [9]: highest signal in the kidneys, high intensity in HEK293-hACE2 xenografts, and moderate in liver

Compound: CC(C)C[C@H](NC(=O)[C@@H]1CCCN1C(=O)[C@H](CO)NC(=O)[C@H](CS)NC(=O)[C@H](Cc1c[nH]cn1)NC(=O)[C@H](CO)NC(=O)[C@H](Cc1ccc(O)cc1)NC(=O)[C@H](CC(=O)O)NC(=O)CNC(=O)CCC(C(=O)O)N1CCN(CC(=O)O)CCN(CC(=O)O)CC1)C(=O)N[C@@H](CCCNC(=N)N)C(=O)N[C@@H](Cc1ccc(O)cc1)C(=O)N[C@@H](Cc1ccc(O)cc1)C(=O)N1CCC[C@H]1C(=O)N[C@@H](Cc1c[nH]c2ccccc12)C(=O)N[C@@H](Cc1c[nH]c2ccccc12)C(=O)N[C@@H](CCCCN)C(=O)N[C@@H](CS)C(=O)N[C@H](C(=O)N[C@@H](Cc1ccc(O)cc1)C(=O)N1CCC[C@H]1C(=O)N[C@@H](CC(=O)O)C(=O)N1CCC[C@H]1C(=O)N[C@@H](CCC(=O)O)C(=O)NCC(=O)NCC(=O)NCC(N)=O)[C@@H](C)O (stereo partly shown) [64Cu-HZ-19, metal not drawn]
- clearance from the blood pool [9]: rapid
- liver retention [9]: increased liver retention

Compound: CC(=O)NCC(=O)N[C@@H](CC(=O)O)C(=O)N[C@@H](Cc1ccc(O)cc1)C(=O)N[C@@H](CO)C(=O)N[C@@H](Cc1cnc[nH]1)C(=O)N[C@H]1CSSC[C@@H](C(=O)N[C@H](C(=O)N[C@@H](Cc2ccc(O)cc2)C(=O)N2CCC[C@H]2C(=O)N[C@@H](CC(=O)O)C(=O)N2CCC[C@H]2C(=O)N[C@@H](CCC(=O)O)C(=O)NCC(=O)NCC(=O)NCC(N)=O)[C@@H](C)O)NC(=O)[C@H](CCCCN)NC(=O)[C@H](Cc2c[nH]c3ccccc23)NC(=O)[C@H](Cc2c[nH]c3ccccc23)NC(=O)[C@@H]2CCCN2C(=O)[C@H](Cc2ccc(O)cc2)NC(=O)[C@H](Cc2ccc(O)cc2)NC(=O)[C@H](CCCNC(=N)N)NC(=O)[C@H](CC(C)C)NC(=O)[C@@H]2CCCN2C(=O)[C@H](CO)NC1=O [DX600]
- body weight, experimental group versus control group ([2]; 200 μg/200 μL on day 0, 4, 11, 18 and 25): no significant difference
- body weight, start of monitoring ([2]; experimental group n=5): 26.5 ± 5.2 g
- body weight, end of monitoring ([2]; experimental group n=5, 25 days): 41.2 ± 3.1 g
